# B1: Protein TIFY 7 (Arabidopsis thaliana (Mouse-ear cress)), Q8W4J8 (parent)
# chain: MERDFLGLSDKQYLSNNVKHEVNDDAVEERGLSTKAAREWGKSKVFATSSFMPSSDFQEAKAFPGAYQWGSVSAANVFRRCQFGGAFQNATPLLLGGSVPLPTHPSLVPRVASSGSSPQLTIFYGGTISVFNDISPDKAQAIMLCAGNGLKGETGDSKPVREAERMYGKQIHNTAATSSSSATHTDNFSRCRDTPVAATNAMSMIESFNAAPRNMIPSVPQARKASLARFLEKRKERLMSAMPYKKMLLDLSTGESSGMNYSSTSPT
# partner: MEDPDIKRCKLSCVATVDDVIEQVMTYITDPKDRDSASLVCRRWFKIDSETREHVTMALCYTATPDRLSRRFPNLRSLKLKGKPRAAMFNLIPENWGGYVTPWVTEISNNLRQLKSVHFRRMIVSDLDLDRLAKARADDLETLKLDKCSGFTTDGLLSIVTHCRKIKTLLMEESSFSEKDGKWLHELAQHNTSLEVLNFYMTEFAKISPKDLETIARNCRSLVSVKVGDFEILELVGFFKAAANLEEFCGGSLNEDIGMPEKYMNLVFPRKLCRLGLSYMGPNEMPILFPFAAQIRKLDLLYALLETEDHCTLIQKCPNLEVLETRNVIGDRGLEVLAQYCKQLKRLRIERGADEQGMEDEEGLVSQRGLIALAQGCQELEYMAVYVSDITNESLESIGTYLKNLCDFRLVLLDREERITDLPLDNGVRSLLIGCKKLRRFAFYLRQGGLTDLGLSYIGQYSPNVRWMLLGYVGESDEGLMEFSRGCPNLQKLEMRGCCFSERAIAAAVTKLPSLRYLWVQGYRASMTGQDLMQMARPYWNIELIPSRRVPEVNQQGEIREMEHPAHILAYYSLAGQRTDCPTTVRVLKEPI
# B2: Protein TIFY 7 (Arabidopsis thaliana (Mouse-ear cress)), Q8W4J8 (parent)
# chain: B1 chain
# What was measured:
# coi1_arath COI1, O04197 = variants of: B1; conditions: with coi1_arath COI1, O04197
# myc3_arath MYC3, Q9FIP9 = variants of: B2; conditions: with myc3_arath MYC3, Q9FIP9
# myc2_arath MYC2, Q39204 = variants of: B2; conditions: with myc2_arath MYC2, Q39204
# myc4_arath MYC4, O49687 = variants of: B2; conditions: with myc4_arath MYC4, O49687
# Sequence of myc4_arath MYC4, O49687 (O49687 whole entry): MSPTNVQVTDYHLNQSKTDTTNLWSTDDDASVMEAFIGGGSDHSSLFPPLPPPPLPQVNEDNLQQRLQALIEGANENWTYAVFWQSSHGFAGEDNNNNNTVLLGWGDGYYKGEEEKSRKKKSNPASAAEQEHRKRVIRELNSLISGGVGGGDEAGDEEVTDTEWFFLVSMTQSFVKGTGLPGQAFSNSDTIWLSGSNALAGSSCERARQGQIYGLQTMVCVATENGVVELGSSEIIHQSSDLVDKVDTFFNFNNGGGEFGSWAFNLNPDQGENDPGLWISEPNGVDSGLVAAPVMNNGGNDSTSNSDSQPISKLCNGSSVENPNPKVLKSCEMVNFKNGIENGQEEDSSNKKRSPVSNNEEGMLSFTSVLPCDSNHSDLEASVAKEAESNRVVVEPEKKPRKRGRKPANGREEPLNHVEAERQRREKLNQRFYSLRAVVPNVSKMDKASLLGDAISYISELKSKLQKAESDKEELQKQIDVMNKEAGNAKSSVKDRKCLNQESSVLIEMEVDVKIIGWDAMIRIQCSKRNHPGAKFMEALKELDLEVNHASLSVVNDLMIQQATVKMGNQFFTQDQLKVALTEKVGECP
# Sequence of myc2_arath MYC2, Q39204 (Q39204 whole entry): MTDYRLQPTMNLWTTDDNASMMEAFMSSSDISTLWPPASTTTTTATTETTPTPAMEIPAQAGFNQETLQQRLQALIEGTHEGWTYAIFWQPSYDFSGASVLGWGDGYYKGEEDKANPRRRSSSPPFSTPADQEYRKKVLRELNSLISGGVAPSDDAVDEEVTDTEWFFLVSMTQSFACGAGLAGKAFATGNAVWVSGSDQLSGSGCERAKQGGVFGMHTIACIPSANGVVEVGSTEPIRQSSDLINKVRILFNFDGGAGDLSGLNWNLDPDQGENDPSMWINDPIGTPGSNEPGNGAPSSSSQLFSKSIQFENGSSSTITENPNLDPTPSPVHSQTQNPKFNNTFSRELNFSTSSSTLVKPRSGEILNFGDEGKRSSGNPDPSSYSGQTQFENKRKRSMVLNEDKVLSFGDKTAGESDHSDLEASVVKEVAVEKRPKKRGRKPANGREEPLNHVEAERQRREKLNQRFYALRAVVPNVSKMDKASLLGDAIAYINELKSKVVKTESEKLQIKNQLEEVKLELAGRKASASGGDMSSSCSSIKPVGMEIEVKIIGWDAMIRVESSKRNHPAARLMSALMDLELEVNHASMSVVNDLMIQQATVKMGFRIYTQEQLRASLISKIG
# Sequence of myc3_arath MYC3, Q9FIP9 (Q9FIP9 whole entry): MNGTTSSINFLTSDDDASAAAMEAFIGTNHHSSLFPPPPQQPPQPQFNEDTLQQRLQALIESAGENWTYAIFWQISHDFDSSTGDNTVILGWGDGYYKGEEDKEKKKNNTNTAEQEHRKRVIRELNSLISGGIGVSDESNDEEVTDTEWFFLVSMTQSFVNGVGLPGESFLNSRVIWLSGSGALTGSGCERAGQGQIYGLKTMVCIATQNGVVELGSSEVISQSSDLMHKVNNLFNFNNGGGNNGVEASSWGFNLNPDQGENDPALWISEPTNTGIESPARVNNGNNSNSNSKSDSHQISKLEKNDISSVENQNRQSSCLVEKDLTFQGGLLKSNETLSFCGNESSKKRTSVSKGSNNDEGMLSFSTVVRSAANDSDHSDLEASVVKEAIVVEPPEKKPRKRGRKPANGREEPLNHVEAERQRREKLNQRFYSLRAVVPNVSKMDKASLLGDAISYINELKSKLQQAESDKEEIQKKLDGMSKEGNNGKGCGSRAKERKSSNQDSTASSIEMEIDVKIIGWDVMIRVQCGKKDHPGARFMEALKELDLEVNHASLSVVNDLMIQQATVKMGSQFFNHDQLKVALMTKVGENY
Variant,"effect of a mutation on the interaction (coi1_arath COI1, O04197)","effect of a mutation on the interaction (myc3_arath MYC3, Q9FIP9)","effect of a mutation on the interaction (myc2_arath MYC2, Q39204)","effect of a mutation on the interaction (myc4_arath MYC4, O49687)"
R234A,disrupting interaction strength,,,
L231A,decreasing interaction strength,,,
F230A,disrupting interaction strength,,,
S218A;V219A;P220A;Q221A,disrupting interaction strength,,,
R223A;K224A,disrupting interaction strength,,,
L231A,,disrupting interaction strength,decreasing interaction strength,decreasing interaction strength
R234A,,disrupting interaction strength,disrupting interaction strength,disrupting interaction strength
L227A,,disrupting interaction strength,disrupting interaction strength,disrupting interaction strength
F230A,,disrupting interaction strength,disrupting interaction strength,disrupting interaction strength

# — IntAct's records for PubMed 26258305
